B1: Mab 2F11 (antibody, V domains shown)
VH: QVQLKESGPGLVAPSQSLSITCTVSGFSLTTYDISWIRQSPGKGLEWLGVIWTDGGTNYNSPFMSRLSIRKDNSKSQVFLKMNRLQTDDTAIYYCVRDQRLYFDVWGAGTTVTVSS
VL: NIVMTQSPKSMSMSVGERVTLNCKASEDVNTYVSWYQQQPEQSPKLLIYGASNRYTGVPDRFTGGGSTTDFTLTISSVQAEDLADYFCGQSFSYPTFGTGTKLEIK
B2: Mab 1G10 (antibody, V domains shown)
VH: RVQLKESGPGLVAPSQSLSITCTVSGFSLTSYDISWIRQSPGKGLEWLGVIWSGGGTNYNSPFMSRLRISKDDSRSQVFLKVNRLQTDDTAIYYCVRDLRLYFDVWGAGTTVTVSS
VL: KIVMTQSPKSMSVSVGERVSLSCKASEDVGTYVSWYQQKPEQSPKLLIYGSSNRYTGVPDRFTGSGSATDFTLTISSVQAEDLADYSCGQSFTYPTFGTGTKLEIK
B3: Mab 2E10 (antibody, V domains shown)
VH: QVQLKESGPGLVAPSKSLSITCTVSGSSLDSFDISWIRQSPGKGLEWLGVIWTGGGTNYNSGFMSRLRITKDNSKSQVLLKMNSLQSDDTAIYYCVRDPRLYFDVWGAGTTVTVSS
VL: NIVMTQSPKSMSMSVGERVTLSCKASEDVVTYVSWYQQKPDQSPKLLIYGASNRYTGVPDRFTGSGSATDFTLTISSVQAEDLADYYCGQTFSYPTFGTGTKLEIK
B4: Mab 2H7 (antibody, V domains shown)
VH: QVQLKESGPGLVAPSKSLSITCTVSGSSLDSFDISWIRQPPGKGLEWLGVIWTGGGTNYNSGFMSRLRISKDNSKSQVFLKMSSLQSDDTAIYYCVRDPRLYFDVWGAGTTVTVSS
VL: NIVMTQSPKSMSMSVGERVTLSCKASEDVVTYVSWYQQKPEQSPKLLIYGASNRYTGVPDRFTGSGSATDFTLTISSIQAEDLADYYCGQTFSYPTFGTGTKLEIK

Key:
[1] = target: CSF-1R of cynomolgous monocytes (cynomolgous); assay: cell-based or functional assay
[2] = target: human wildtype CSF-1R (full-length) (human, UniProt P07333 20-972); assay: cell-based or functional assay

Binder	% survival (cynomolgous monocytes with huCSF-1, 5 µg/ml antibody) [1] [%]	% inhibition 10 µg/ml antibody concentration (BeWo cells, CSF-1 induced growth) [2] [%]
B1	4	70
B2	2	99
B3	17	102
B4	8	103

Source: patent publication US20160220669A1 (Hoffmann-La Roche, published 2016)
